# In PMC4627082, “MCM ring hexamerization is a prerequisite for DNA-binding” (Nucleic Acids Research, 2015):
# B1: PfMCMN-βT (1–256; K233A; R234A; K236A) (domain or fragment, Pyrococcus furiosus, UniProt Q8U3I4 1-256, looked up)
# chain: MDREEMIERFANFLREYTDEDGNPVYRGKITDLLTITPKRSVAIDWMHLNSFDSELAHEVIENPEEGISAAEDAIQIVLREDFQREDVGKIHARFYNLPETLMVKDIGAEHINKLIQVEGIVTRVGEIKPFVSVAVFVCKDCGHEMIVPQKPYESLEKVKKCEQCGSKNIELDVNKSSFVNFQSFRIQDRPETLKGGEMPRFIDGILLDDIVDVALPGDRVIVTGILRVVLEAAEATPIFRKILEVNHIEPVSKEI
# notes: Minichromosome Maintenance (MCM) protein of Pyrococcus furiosus, N-terminal domain, residues 1-256, with three alanine mutations of the β-turn; Made by site-directed mutagenesis of the PfMCMN-WT SUMO-fusion construct; SUMO removed by Ulp1; also called β-turn triple mutant; pCF076.1
# What was measured:
# [1] = target: PfMCMN-WT (residues 1–256), amino-terminal domain of Pyrococcus furiosus MCM (Pyrococcus furiosus) (UniProt Q8U3I4); experiment: AUC; sedimentation equilibrium of apoproteins, 12-51 μM, 20°C, 20 mM HEPES pH 7.6, 200 mM NaCl, 5 mM β-mercaptoethanol, absorbance 280 nm; reversible monomer-hexamer (WT, hexamer to monomers) or monomer-pentamer (βT, pentamer to monomers) model; the constant is the protein concentration where half of the protein is monomeric
# [2] = target: PfMCMN-WT (residues 1–256), amino-terminal domain of Pyrococcus furiosus MCM (Pyrococcus furiosus) (UniProt Q8U3I4); experiment: AUC; sedimentation velocity, 20°C, 50 000 rpm, 20 mM HEPES pH 7.6, 200 mM NaCl, 5 mM β-mercaptoethanol, interference and absorbance optics, c(s) distributions; isotherm of signal-average s-values fitted to monomer-hexamer self-association; some WT samples with 40-mer oligo-dT ssDNA (T40)
# [3] = target: PfMCMN-WT (residues 1–256), amino-terminal domain of Pyrococcus furiosus MCM (Pyrococcus furiosus) (UniProt Q8U3I4); experiment: AUC; sedimentation velocity at the highest PfMCMN-WT concentration (350 μM), co-interpreted with sedimentation equilibrium; 20°C, 20 mM HEPES pH 7.6, 200 mM NaCl, 5 mM β-mercaptoethanol
# [4] = target: the molecule itself; experiment: AUC; sedimentation velocity, 20°C, 50 000 rpm, 20 mM HEPES pH 7.6, 200 mM NaCl, 5 mM β-mercaptoethanol, interference and absorbance optics, c(s) distributions; isotherm of signal-average s-values fitted to monomer-hexamer self-association; some WT samples with 40-mer oligo-dT ssDNA (T40)
# [5] = target: the molecule itself; experiment: SEC; final size-exclusion chromatography step of purification; elution volume compared with PfMCMN-WT
# [6] = target: the molecule itself; experiment: AUC; sedimentation equilibrium of apoproteins, 12-51 μM, 20°C, 20 mM HEPES pH 7.6, 200 mM NaCl, 5 mM β-mercaptoethanol, absorbance 280 nm; reversible monomer-hexamer (WT, hexamer to monomers) or monomer-pentamer (βT, pentamer to monomers) model; the constant is the protein concentration where half of the protein is monomeric
Molecule,Kd [1] [µM],Kd [2] [µM],percent hexamer at 15 μM with T40 ssDNA [2] [%],percent hexamer at 38 μM with T40 ssDNA [2] [%],percent hexamer at 45 μM with T40 ssDNA [2] [%],percent hexamer at 128 μM with T40 ssDNA [2] [%],percent of protein in the hexameric fraction at 76 μM [2] [%],percent of protein in the hexameric fraction at 180 μM [2] [%],stoichiometry N [2],stoichiometry N [3],stoichiometry N [4],stoichiometry N [5],Kd [6] [µM]
"PfMCMN-WT (residues 1–256), amino-terminal domain of Pyrococcus furiosus MCM (from UniProt Q8U3I4 1-256) (domain or fragment)",60,58,55,72,72,82,37,60,6,12,,,
B1,,,,,,,,,,,5,~3,8
